Test results published in patent US8209131B2, “Therapeutic heparins and their binding to interleukins 4 and 5 and PECAM-1” (Curtin University of Technology, priority 2004, dated 2012).

Key:
[1] = BIAcore binding of proteins to heparin immobilised on a biosensor chip; settings: for ka / kd / Kd: IL-4 WT and mutants binding to heparin; for ka: in M-1s-1 (unit assumed); for kd: in s-1 (unit assumed); for Kd: read-out: KD
Text: This technology uses the optical phenomenon of surface plasmon resonance to monitor physical interactions between molecules. Passing the protein solution over a sensor surface to which the ligand is coupled monitors the real-time binding of proteins to an immobilized ligand. Detection is achieved by measuring refractive index changes very close to the sensor surface. When the refractive index is altered, the angle at which plasmon resonance occurs changes and this change directly correlates with the amount of protein interacting with the surface. A BIAcore 2000 is conveniently used. It is very sensitive and its microfluidics ensures that only small amounts of material are required.
The HLGAGs are immobilized on the biosensor chip. Intact HLGAGs are biotinylated via amino groups, or reducing termini modified with ammonia by reductive amination, using sulfo-NHS-biotin. Biotinylated HLGAGs are immobilized on streptavidin-coupled sensor chips. Solutions containing proteins of interest are injected over the sensor chip surface, and the binding is measured in real time (Fernig, In: Proteoglycan protocols, Ed. R.V. Iozzo, Humana Press, Totowa, N.J., USA, 2001). […] In all cases binding is specific, as there is little or no interaction with sensor chips lacking heparin with any of the targeted proteins, and binding is inhibited by exogenous heparin. Initial analyzes indicate that the binding of rhIL-5 to heparin has affinity constants of the order from 50-5×10^−9. Because unsubstituted amines are variably present in heparan sulfates from different tissues, an alternative method of biotin labeling is recommended for the heparan sulfate chip. In this case, heparan sulfate is labeled via oxidized cis-diol residues using biotinyl-LC-hydrazine. […]
Binding experiments with these proteins has indicated to which PECAM-1 domains heparin binds. Two binding assays were used: the assay where PECAM-1 is reacted with a BIAcore biosensor chip to which heparin has been immobilised and the second assay is the binding of PECAM-1 to heparan sulfate on the cell surface.
Site directed mutagenesis was performed on IL-4. Basic residues within the proposed heparin binding site were changed to alanine and the proteins expressed using the baculovirus expression system. The one exception was R88 which was changed to valine. Insect cell expressed proteins were purified on an anti-IL-4 affinity column and checked for purity by SDS-PAGE and silver staining. Mutant IL-4 proteins were examined for their ability to bind heparin immobilised on a biosensor chip and binding assessed using a BIAcore 2000.

TF1.8 cells = assay: TF1.8 bioassay of IL-4 mutants (support of proliferation); format: cell-based, human; settings: for Conc needed for 50% growth, average: IL-4 wt and mutants, TF1.8 cells; for proliferative activity of IL-4 mutants: compared with WT
Procedure: TF-1.8 cells have been transfected with the firefly luciferase gene contained in the expression vector, pPGK-puromycin-luciferase (Coombe et al., 1998, Supra). The positive transfectants are cloned to produce a line with good luciferase expression. The proliferation assays are carried out in 96-well microplates suitable for such assays Falcon). The wells are flat bottomed, with white sides and a clear bottom. Cells are washed to remove any cytokine in the growth medium and then resuspended in RPMI/5% w/v FCS. The cells are counted with a Coulter Multisizer (Coulter Electronics, England) and routinely 2.5×10^4 cells are added to microplate wells that contain either no IL-4 (negative control) or various dilutions of IL-4. When the effect of HLGAGs, chondroitin sulfate C, or the heparin fractions of a particular length, or heparin fragments of a particular length and structure is to be measured, the wells also contain various concentrations of these molecules.
The cells proliferate for 48 hours at 37° C. in a humidified atmosphere, after which the luciferase activity is measured by the addition of 50 μl of luciferase substrate buffer (50 mm Tris-HCl, pH 7.8, 15 mM MgSO4, 33.3 mM DTT, 0.1 mM EDTA, 0.5 mM Na-luciferin, 0.5 mM ATP, 0.25 mM lithium Co A and 0.5% v/v Triton X-100). Immediately after the addition of the luciferase buffer the plate is assayed for luciferase activity. Light emissions are detected on a Victor 1420 Multilabel counter (Wallac, Turku, Finland).
IL-4 mutants were compared with WT for their ability to support the proliferation of TF1.8 cells. Titration curves were performed for each of the mutants and the concentration needed to support 50% of cell growth was determined.

| Molecule | binding to immobilized heparin ([1]; recombinant proteins, FIG. 2) | heparin binding of IL-4 mutant relative to wild type [1] | ka [1] | kd [1] | Kd [1] | Conc needed for 50% growth, average (TF1.8 cells) | proliferative activity of IL-4 mutants (TF1.8 cells) |
| --- | --- | --- | --- | --- | --- | --- | --- |
| βc: IL-3, IL-5 and GM-CSF common receptor β extracellular domain fused to flag tag (protein, UniProt P32927 17-443, looked up, extracellular domain Flag tag, IL-3, IL-5 and GM-CSF common receptor β extracellular domain fused to flag tag) extracellular domain: WERSLAGAEETIPLQTLRCYNDYTSHITCRWADTQDAQRLVNVTLIRRVNEDLLEPVSCDLSDDMPWSACPHPRCVPRRCVIPCQSFVVTDVDYFSFQPDRPLGTRLTVTLTQHVQPPEPRDLQISTDQDHFLLTWSVALGSPQSHWLSPGDLEFEVVYKRLQDSWEDAAILLSNTSQATLGPEHLMPSSTYVARVRTRLAPGSRLSGRPSKWSPEVCWDSQPGDEAQPQNLECFFDGAAVLSCSWEVRKEVASSVSFGLFYKPSPDAGEEECSPVLREGLGSLHTRHHCQIPVPDPATHGQYIVSVQPRRAEKHIKSSVNIQMAPPSLNVTKDGDSYSLRWETMKMRYEHIDHTFEIQYRKDTATWKDSKTETLQNAHSMALPALEPSTRYWARVRVRTSRTGYNGIWSEWSEARSWDTESVLPMW | binds to heparin |  |  |  |  |  |  |
| R85A: IL-4 mutant, baculovirus expressed (protein) HKCDITLQEIIKTLNSLTEQKTLCTELTVTDIFAASKNTTEKETFCRAATVLRQFYSHHEKDTRCLGATAQQFHRHKQLIRFLKALDRNLWGLAGLNSCPVKEANQSTLENFLERLKTIMREKYSKCSS |  | stronger binding than the wild type | 1.04E+05 | 2.42E−03 | 23.4 nM | 0.71 ng/mL |  |
| R75A: IL-4 mutant, baculovirus expressed (protein) HKCDITLQEIIKTLNSLTEQKTLCTELTVTDIFAASKNTTEKETFCRAATVLRQFYSHHEKDTRCLGATAQQFHAHKQLIRFLKRLDRNLWGLAGLNSCPVKEANQSTLENFLERLKTIMREKYSKCSS |  |  | 3.32E+04 | 3.63E−03 | 109 nM | 0.63 ng/mL |  |
| K77A/R85A: IL-4 double mutant (protein, UniProt P05112 25-153, looked up, variant K77A R85A) Interleukin-4: HKCDITLQEIIKTLNSLTEQKTLCTELTVTDIFAASKNTTEKETFCRAATVLRQFYSHHEKDTRCLGATAQQFHRHAQLIRFLKALDRNLWGLAGLNSCPVKEANQSTLENFLERLKTIMREKYSKCSS |  |  | 1.51E+04 | 1.78E−03 | 117 nM |  |  |
| E9A: IL-4 mutant, baculovirus expressed (protein) HKCDITLQAIIKTLNSLTEQKTLCTELTVTDIFAASKNTTEKETFCRAATVLRQFYSHHEKDTRCLGATAQQFHRHKQLIRFLKRLDRNLWGLAGLNSCPVKEANQSTLENFLERLKTIMREKYSKCSS |  |  | 1.72E+05 | 8.45E−03 | 49.3 nM | 76.1 ng/mL | markedly decreased proliferative activity |
| E60A: IL-4 mutant, baculovirus expressed (protein) HKCDITLQEIIKTLNSLTEQKTLCTELTVTDIFAASKNTTEKETFCRAATVLRQFYSHHAKDTRCLGATAQQFHRHKQLIRFLKRLDRNLWGLAGLNSCPVKEANQSTLENFLERLKTIMREKYSKCSS |  |  | 8.44E+04 | 2.76E−03 | 32.7 nM |  |  |
| H74A: IL-4 mutant, baculovirus expressed (protein, UniProt P05112 25-153, looked up, variant H74A) Interleukin-4: HKCDITLQEIIKTLNSLTEQKTLCTELTVTDIFAASKNTTEKETFCRAATVLRQFYSHHEKDTRCLGATAQQFARHKQLIRFLKRLDRNLWGLAGLNSCPVKEANQSTLENFLERLKTIMREKYSKCSS |  |  | 2.05E+04 | 6.37E−04 | 31.1 nM |  |  |
| D87A: IL-4 mutant, baculovirus expressed (protein, UniProt P05112 25-153, looked up, variant D87A) Interleukin-4: HKCDITLQEIIKTLNSLTEQKTLCTELTVTDIFAASKNTTEKETFCRAATVLRQFYSHHEKDTRCLGATAQQFHRHKQLIRFLKRLARNLWGLAGLNSCPVKEANQSTLENFLERLKTIMREKYSKCSS |  |  | 4.42E+04 | 1.59E−03 | 36 nM |  |  |
| R81A: IL-4 mutant, baculovirus expressed (protein) HKCDITLQEIIKTLNSLTEQKTLCTELTVTDIFAASKNTTEKETFCRAATVLRQFYSHHEKDTRCLGATAQQFHRHKQLIAFLKRLDRNLWGLAGLNSCPVKEANQSTLENFLERLKTIMREKYSKCSS |  |  | 2.43E+04 | 2.37E−03 | 97.8 nM | 4.85 ng/mL | slightly decreased proliferative activity |
| K77A/R88V: IL-4 double mutant (protein, UniProt P05112 25-153, looked up, variant K77A R88V) Interleukin-4: HKCDITLQEIIKTLNSLTEQKTLCTELTVTDIFAASKNTTEKETFCRAATVLRQFYSHHEKDTRCLGATAQQFHRHAQLIRFLKRLDVNLWGLAGLNSCPVKEANQSTLENFLERLKTIMREKYSKCSS |  |  | 1.36E+04 | 1.94E−03 | 142 nM |  |  |
| K84A: IL-4 mutant, baculovirus expressed (protein) HKCDITLQEIIKTLNSLTEQKTLCTELTVTDIFAASKNTTEKETFCRAATVLRQFYSHHEKDTRCLGATAQQFHRHKQLIRFLARLDRNLWGLAGLNSCPVKEANQSTLENFLERLKTIMREKYSKCSS |  |  | 3.06E+04 | 2.57E−03 | 83.9 nM | 2.95 ng/mL | slightly decreased proliferative activity |
| K42A: IL-4 mutant, baculovirus expressed (protein) HKCDITLQEIIKTLNSLTEQKTLCTELTVTDIFAASKNTTEAETFCRAATVLRQFYSHHEKDTRCLGATAQQFHRHKQLIRFLKRLDRNLWGLAGLNSCPVKEANQSTLENFLERLKTIMREKYSKCSS |  |  | 4.63E+04 | 2.50E−03 | 53.9 nM | 0.67 ng/mL |  |
| R53A: IL-4 mutant, baculovirus expressed (protein) HKCDITLQEIIKTLNSLTEQKTLCTELTVTDIFAASKNTTEKETFCRAATVLAQFYSHHEKDTRCLGATAQQFHRHKQLIRFLKRLDRNLWGLAGLNSCPVKEANQSTLENFLERLKTIMREKYSKCSS |  |  | 5.83E+04 | 5.40E−03 | 92.5 nM | 9.39 ng/mL | slightly decreased proliferative activity |
| K77A/K12A: IL-4 double mutant (protein, UniProt P05112 25-153, looked up, variant K77A K12A) Interleukin-4: HKCDITLQEIIATLNSLTEQKTLCTELTVTDIFAASKNTTEKETFCRAATVLRQFYSHHEKDTRCLGATAQQFHRHAQLIRFLKRLDRNLWGLAGLNSCPVKEANQSTLENFLERLKTIMREKYSKCSS |  |  | 1.65E+04 | 3.44E−03 | 209 nM |  |  |
